Data from article PMC9482650, “Quantitative fragmentomics allow affinity mapping of interactomes” (Nature Communications, 2022).

What was measured:
Assay in all cases: PDZ-AP-MS, biotinylated MBP-PDZ baits
Format in all cases: binding, human
[1] = system: Jurkat cell extract preys; details: for Difference log2: enrichment of prey
Experimental: (§1) For PDZ-AP-MS experiments, PDZ domains were cloned as His6-AviTag-MBP-PDZ constructs. For co-expression with BirA, E. coli BL21(DE3) cells were co-transformed with His6-AviTag-MBP, or His6-AviTag-MBP-PDZ-coding and PET21a-BirA (Addgene #20857) plasmids. Simultaneously to IPTG induction, 50 µM biotin was added to the media. After cell harvesting, the lysis buffer was also supplemented with 50 µM biotin. Otherwise, expression and double affinity purification was identical as previously described in details.
(§2) For PBM-AP-MS experiments, 30 μl streptavidin resin was mixed with biotin or peptide at 50–60 μM concentration in 6–6.5 resin volume for 60 min to achieve resin saturation. For PDZ-AP-MS experiments, 30 μl streptavidin resin was mixed with biotinylated MBP or MBP-PDZ at 40-50 μM concentration in >1000× resin volume for 60 min to achieve resin saturation. After saturation, resins were washed a single time (ten resin volume, holdup buffer), and were depleted with biotin (1 mM biotin, 5–10 resin volume, 10 min). Finally, resins were washed two times. 0.5 ml 2 mg/ml cell lysate was added to the dry resin (1 mg total input) and were incubated at 4 °C for 2 h. Then, the beads were washed three times with 10 resin volume buffer containing: 50 mM TRIS pH 8.5, 150 mM NaCl, 1% TritonX-100, 10× complete EDTA-free protease inhibitor cocktail, 2 mM EDTA, 1 mM TCEP. Then, the beads were washed two times with ten resin volume buffer containing: 50 mM TRIS pH 8.5, 150 mM NaCl, 1 mM TCEP. Finally, captured protein was eluted from the resin in two steps and the eluted fractions were pooled. For each elution the beads were incubated for 30 min with three resin volume buffer containing: 20 mM TRIS pH8.5, 100 mM NaCl, 500 μM TCEP, 8 M Urea. Between each step, the beads were separated by mild centrifugation and the supernatant was removed by gentle pipetting.
(§3) The samples were precipitated with TCA 20% overnight at 4 °C and centrifuged at 14,000 rpm for 10 min at 4 °C. The protein pellets were washed twice with 1 mL cold acetone and air dried. The protein extracts were solubilized in urea 8 M, reduced with 5 mM TCEP for 30 min, and alkylated with 10 mM iodoacetamide for 30 min in the dark. Double digestion was performed at 37 °C with 500 ng endoproteinase Lys-C for 4 h, followed by fourfold dilution and an overnight digestion with 500 ng trypsin. Peptide mixtures were then desalted on C18 spin-column and dried on Speed-Vacuum.
(§4) Samples were analyzed using an Ultimate 3000 nano-RSLC (Thermo Scientific, San Jose California) coupled in line with a LTQ-Orbitrap ELITE mass spectrometer via a nano-electrospray ionization source (Thermo Scientific, San Jose California). Peptide mixtures were injected in 0.1% TFA on a C18 Acclaim PepMap100 trap-column (75 µm ID × 2 cm, 3 µm, 100 Å, Thermo Fisher Scientific) for 3 min at 5 µL/min with 2% ACN, 0.1% FA in H2O and then separated on a C18 Accucore nano-column (75 µm ID × 50 cm, 2.6 µm, 150 Å, Thermo Fisher Scientific) at 220 nl/min and 38 °C with a 90 min linear gradient from 5% to 30% buffer B (A: 0.1% FA in H2O/B: 99% ACN, 0.1% FA in H2O), regeneration at 5% B. The mass spectrometer was operated in positive ionization mode, in data-dependent mode with survey scans from m/z 350–1500 acquired in the Orbitrap at a resolution of 120,000 at m/z 400. The 20 most intense peaks from survey scans were selected for further fragmentation in the Linear Ion Trap with an isolation window of 2.0 Da and were fragmented by CID with normalized collision energy of 35%. (TOP20CID method) Unassigned and single charged states were excluded from fragmentation. The Ion Target Value for the survey scans (in the Orbitrap) and the MS2 mode (in the Linear Ion Trap) were set to 1E6 and 5E3 respectively and the maximum injection time was set to 100 ms for both scan modes. Dynamic exclusion was set to 20 s after one repeat count with mass width at ±10 ppm. […]

HaCat cell extract preys = details: for Difference log2: bait TX1BP3 PDZ vs MBP, enrichment of prey; for Ratio TX1BP3/MBP: bait TX1BP3 PDZ, fold change of prey
Experimental: as §1, §2, §3, §4

HeLa cell extract preys = details: for Ratio: fold enrichment of prey; for Difference: log2 enrichment of prey
Experimental: as §1, §2, §3, §4

[2] = PDZ-AP-MS fold change of the PBM-protein prey, bait MBP-PDZ DLG1_1
[3] = PDZ-AP-MS fold change of the PBM-protein prey, bait MBP-PDZ DLG1_2
[4] = PDZ-AP-MS fold change of the PBM-protein prey, bait MBP-PDZ SCRIB_1
[5] = PDZ-AP-MS fold change of the PBM-protein prey, bait MBP-PDZ SCRIB_2
[6] = PDZ-AP-MS fold change of the PBM-protein prey, bait MBP-PDZ SNX27
[7] = PDZ-AP-MS fold change of the PBM-protein prey, bait MBP-PDZ TX1BP3

B1: TAX1BP3 (protein, UniProt O14907 2-124, looked up)
Tax1-binding protein 3: SYIPGQPVTAVVQRVEIHKLRQGENLILGFSIGGGIDQDPSQNPFSEDKTDKGIYVTRVSEGGPAEIAGLQIGDKIMQVNGWDMTMVTHDQARKRLTKRSEEVVRLLVTRQSLQKAVQQSMLS
Difference log2 ([1]; bait DLG1_1 PDZ vs MBP): 4.078 | Ratio DLG1_1 / MBP ([1]; bait DLG1_1 PDZ, fold change of prey): 16.8941 | Difference log2 ([1]; bait TX1BP3 PDZ vs MBP): 12.2171 | Ratio TX1BP3/MBP ([1]; bait TX1BP3 PDZ, fold change of prey): 4761.06 | Difference log2 (HaCat cell extract preys): 10.0746 | Ratio TX1BP3/MBP (HaCat cell extract preys): 1078.31 | Ratio (HeLa cell extract preys; bait TX1BP3 PDZ vs MBP control): 86.5427 | Difference (HeLa cell extract preys; bait TX1BP3 PDZ vs MBP control): 6.435

B2: TX1BP3 (protein, UniProt O14907 2-124, looked up)
Tax1-binding protein 3: SYIPGQPVTAVVQRVEIHKLRQGENLILGFSIGGGIDQDPSQNPFSEDKTDKGIYVTRVSEGGPAEIAGLQIGDKIMQVNGWDMTMVTHDQARKRLTKRSEEVVRLLVTRQSLQKAVQQSMLS
Difference log2 (HaCat cell extract preys): 9.132 | Ratio TX1BP3/MBP (HaCat cell extract preys): 561.056

B3: ALDH9A1 (protein, UniProt P49189 1-494, looked up)
4-trimethylaminobutyraldehyde …: MSTGTFVVSQPLNYRGGARVEPADASGTEKAFEPATGRVIATFTCSGEKEVNLAVQNAKAAFKIWSQKSGMERCRILLEAARIIREREDEIATMECINNGKSIFEARLDIDISWQCLEYYAGLAASMAGEHIQLPGGSFGYTRREPLGVCVGIGAWNYPFQIASWKSAPALACGNAMVFKPSPFTPVSALLLAEIYSEAGVPPGLFNVVQGGAATGQFLCQHPDVAKVSFTGSVPTGMKIMEMSAKGIKPVTLELGGKSPLIIFSDCDMNNAVKGALMANFLTQGQVCCNGTRVFVQKEILDKFTEEVVKQTQRIKIGDPLLEDTRMGPLINRPHLERVLGFVKVAKEQGAKVLCGGDIYVPEDPKLKDGYYMRPCVLTNCRDDMTCVKEEIFGPVMSILSFDTEAEVLERANDTTFGLAAGVFTRDIQRAHRVVAELQAGTCFINNYNVSPVELPFGGYKKSGFGRENGRVTIEYYSQLKTVCVEMGDVESAF
Fold changes, Jurkat, DLG1_1 [1, 2]: 0.4996 | Fold changes, Jurkat, DLG1_2 [1, 3]: 10.9748 | Fold changes, Jurkat, SCRIB_1 [1, 4]: 0.5795 | Fold changes, Jurkat, SCRIB_2 [1, 5]: 0.6928 | Fold changes, Jurkat, SNX27 [1, 6]: 23.7963 | Fold changes, Jurkat, TX1BP3 [1, 7]: 0.5031 | Fold changes, HaCat, DLG1_1 (HaCat cell extract preys; [2]): 0.7692 | Fold changes, HaCat, DLG1_2 (HaCat cell extract preys; [3]): 1.032 | Fold changes, HaCat, SCRIB_1 (HaCat cell extract preys; [4]): 3.899 | Fold changes, HaCat, SCRIB_2 (HaCat cell extract preys; [5]): 0.6746 | Fold changes, HaCat, SNX27 (HaCat cell extract preys; [6]): 57.4815 | Fold changes, HaCat, TX1BP3 (HaCat cell extract preys; [7]): 0.8437 | Fold changes, HeLa, DLG1_1 (HeLa cell extract preys; [2]): 0.965 | Fold changes, HeLa, DLG1_2 (HeLa cell extract preys; [3]): 0.6499 | Fold changes, HeLa, SCRIB_1 (HeLa cell extract preys; [4]): 1.5654 | Fold changes, HeLa, SCRIB_2 (HeLa cell extract preys; [5]): 0.9621 | Fold changes, HeLa, SNX27 (HeLa cell extract preys; [6]): 23.2299 | Fold changes, HeLa, TX1BP3 (HeLa cell extract preys; [7]): 0.8902

B4: CAPRIN1 (protein, UniProt Q14444 2-709, looked up)
Caprin-1: PSATSHSGSGSKSSGPPPPSGSSGSEAAAGAGAAAPASQHPATGTGAVQTEAMKQILGVIDKKLRNLEKKKGKLDDYQERMNKGERLNQDQLDAVSKYQEVTNNLEFAKELQRSFMALSQDIQKTIKKTARREQLMREEAEQKRLKTVLELQYVLDKLGDDEVRTDLKQGLNGVPILSEEELSLLDEFYKLVDPERDMSLRLNEQYEHASIHLWDLLEGKEKPVCGTTYKVLKEIVERVFQSNYFDSTHNHQNGLCEEEEAASAPAVEDQVPEAEPEPAEEYTEQSEVESTEYVNRQFMAETQFTSGEKEQVDEWTVETVEVVNSLQQQPQAASPSVPEPHSLTPVAQADPLVRRQRVQDLMAQMQGPYNFIQDSMLDFENQTLDPAIVSAQPMNPTQNMDMPQLVCPPVHSESRLAQPNQVPVQPEATQVPLVSSTSEGYTASQPLYQPSHATEQRPQKEPIDQIQATISLNTDQTTASSSLPAASQPQVFQAGTSKPLHSSGINVNAAPFQSMQTVFNMNAPVPPVNEPETLKQQNQYQASYNQSFSSQPHQVEQTELQQEQLQTVVGTYHGSPDQSHQVTGNHQQPPQQNTGFPRSNQPYYNSRGVSRGGSRGARGLMNGYRGPANGFRGGYDGYRPSFSNTPNSGYTQSQFSAPRDYSGYQRDGYQQNFKRGSGQSGPRGAPRGRGGPPRPNRGMPQMNTQQVN
Ratio (HeLa cell extract preys; bait DLG1_1 PDZ vs MBP control): 30.4665 | Difference (HeLa cell extract preys; bait DLG1_1 PDZ vs MBP control): 4.929
